Experimental data from article PMC2475632.

B1: 21-mer/44DDP (dsDNA)
DNA 1: GTCCCTGTTCGGGCGCCAGGA
DNA 2: GATCACGAGACTAGCCTCTGGTCTCCTGGCGCCCGAACAGGGAC
modifications: cisplatin-d(GpG) intrastrand cross-link at template G20-G21 (5' to 3' numbering; GG inferred from primer 23/24 sites)
B2: 22-mer/44DDP (dsDNA)
DNA 1: GTCCCTGTTCGGGCGCCAGGAG
DNA 2: B1 DNA 2
modifications: cisplatin-d(GpG) intrastrand cross-link at template G20-G21
B3: 24-mer/44CTL (dsDNA)
DNA 1: GTCCCTGTTCGGGCGCCAGGAGAC
DNA 2: B1 DNA 2
B4: 25-mer/44CTL (dsDNA)
DNA 1: GTCCCTGTTCGGGCGCCAGGAGACC
DNA 2: B1 DNA 2
B5: 26-mer/44CTL (dsDNA)
DNA 1: GTCCCTGTTCGGGCGCCAGGAGACCA
DNA 2: B1 DNA 2
B6: 27-mer/44CTL (dsDNA)
DNA 1: GTCCCTGTTCGGGCGCCAGGAGACCAG
DNA 2: B1 DNA 2
B7: 23-mer/44DDP (dsDNA)
DNA 1: GTCCCTGTTCGGGCGCCAGGAGA
DNA 2: B1 DNA 2
modifications: cisplatin-d(GpG) intrastrand cross-link at template G20-G21
B8: 24-mer/44DDP (dsDNA)
DNA 1: GTCCCTGTTCGGGCGCCAGGAGAC
DNA 2: B1 DNA 2
modifications: cisplatin-d(GpG) intrastrand cross-link at template G20-G21
B9: 25-mer/44DDP (dsDNA)
DNA 1: GTCCCTGTTCGGGCGCCAGGAGACC
DNA 2: B1 DNA 2
modifications: cisplatin-d(GpG) intrastrand cross-link at template G20-G21
B10: 26-mer/44DDP (dsDNA)
DNA 1: GTCCCTGTTCGGGCGCCAGGAGACCA
DNA 2: B1 DNA 2
modifications: cisplatin-d(GpG) intrastrand cross-link at template G20-G21
B11: 27-mer/44DDP (dsDNA)
DNA 1: GTCCCTGTTCGGGCGCCAGGAGACCAG
DNA 2: B1 DNA 2
modifications: cisplatin-d(GpG) intrastrand cross-link at template G20-G21
B12: 21-mer/44CTL (dsDNA)
DNA 1: GTCCCTGTTCGGGCGCCAGGA
DNA 2: B1 DNA 2
B13: 22-mer/44CTL (dsDNA)
DNA 1: GTCCCTGTTCGGGCGCCAGGAG
DNA 2: B1 DNA 2
B14: 23-mer/44CTL (dsDNA)
DNA 1: GTCCCTGTTCGGGCGCCAGGAGA
DNA 2: B1 DNA 2

Biological target: T1, Dpo4 (DNA polymerase IV) (Sulfolobus solfataricus, UniProt Q97W02 1-352)
T1 sequence: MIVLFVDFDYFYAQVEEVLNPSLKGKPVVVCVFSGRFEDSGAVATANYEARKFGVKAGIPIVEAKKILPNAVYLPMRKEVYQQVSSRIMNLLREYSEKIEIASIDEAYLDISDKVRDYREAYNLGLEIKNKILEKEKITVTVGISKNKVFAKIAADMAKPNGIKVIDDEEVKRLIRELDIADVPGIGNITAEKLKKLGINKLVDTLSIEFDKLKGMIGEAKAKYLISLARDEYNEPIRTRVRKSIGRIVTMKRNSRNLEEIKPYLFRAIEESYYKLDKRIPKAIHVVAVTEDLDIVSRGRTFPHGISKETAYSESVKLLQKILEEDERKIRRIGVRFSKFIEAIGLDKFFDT
Assay: EMSA

Row | Binder | Kd
1 | B1 | 8 ± 1 nM
2 | B2 | 21 ± 4 nM
3 | B3 | 8 ± 1 nM
4 | B4 | 5 ± 1 nM
5 | B5 | 11 ± 2 nM
6 | B6 | 13 ± 4 nM
7 | B7 | 56 ± 9 nM
8 | B8 | 26 ± 3 nM
9 | B9 | 17 ± 4 nM
10 | B10 | 12 ± 2 nM
11 | B11 | 17 ± 3 nM
12 | B12 | 18 ± 3 nM
13 | B13 | 16 ± 3 nM
14 | B14 | 17 ± 2 nM
